Consider one substance from publication PMC6282759, “FlhF(T368A) modulates motility in the bacteriophage carrier state of Campylobacter jejuni” (Molecular Microbiology, 2018).

The data set concerns Nc1nc2c(ncn2[C@@H]2O[C@H](COP(=O)(O)OP(=O)(O)OP(=O)(O)O)[C@@H](O)[C@H]2O)c(=O)[nH]1. Put plainly: purified protein. The note with it: 42 °C, Tris buffer, MgCl2, GTP 0.05-1 mM.

What is called Km is the substrate concentration at which the rate is half of its maximum. For orientation: kcat means the number of substrate molecules converted per active site and unit of time at saturation.

Regarding “FlhF (Campylobacter jejuni subsp. jejuni NCTC 11168 = ATCC 700819)”, the Km worked out at 75 µM and the catalytic constant (kcat) is 0.0115 s⁻¹.
